One may read the IC50 as the concentration that gives 50% inhibition. The Kd is the free concentration of one partner at which half of the binding sites on the other are occupied at equilibrium, for simple one-to-one binding. Read a low Kd as higher affinity. One may read the koff as the rate constant with which the complex falls apart. A higher koff goes with a short-lived complex.

Experiment [1] deals with T1, TR7-Fc fusion protein (human, UniProt O14763 52-184).
T1 construct: also called TR7-Fc receptor; TRAILR2; not shown: Fc region
Kind of experiment: competition ELISA, inhibition of biotinylated TRAIL binding to captured TR7-Fc; unlabelled TRAIL as competitor. The method, then: (§1) Goat anti-human Fc is diluted to 0.1 micrograms/ml in coating buffer. An Immulon 4 microplate is coated with 100 microliters per well of the Goat anti-human Fc solution and incubated overnight at 4° C. The coating solution is decanted from the plate, and blocking solution is dispensed at 200 microliters per well. The plate is incubated at room temperature for 1 hour. After the 1 hour incubation period, the blocking solution is decanted from the plate and 1 microgram/mL of TR7-Fc is dispensed at 100 microliters/well and incubated for 2 hours at room temperature. After the incubation, the plate is washed five times manually using a Wheaton manifold.
(§2) Antibodies corresponding to scFvs of the present invention are (previously) prepared in a low binding dilution plate using diluent. The antibodies are prepared in duplicate and are diluted from the stock concentration with 2.5 fold dilutions for the 7 subsequent wells. If a purified form of the antibody is available, the starting concentration is 5 micrograms/mL. The positive control (TR7-Fc) is diluted from 5 micrograms/mL. 100 microliters is transferred into the ELISA plate and pre-incubated for 30 minutes at room temperature. […]
(§3) After the one-hour incubation, the plate is decanted and washed with PBST five times and blotted. […] The plate is immediately read at 450 nm using the spectrometer from Molecular Devices.
Background: ELISA stands for enzyme-linked immunosorbent assay.

The target of experiment [2] is T1, TR7-Fc fusion protein. Kind of experiment: SPR (BIAcore 2000), TR7-Fc amine-coupled on CM5 chip, 1:1 Langmuir model, mean of three experiments; first lot. The method, then:
(§4) TR7-Fc and TR2-Fc were immobilized on individual flow cells of a BIAcore CM5 sensor chip (BIAcore, Cat # BR-1000-14). Amine coupling (BIAcore, Cat # BR-1000-50) was used to covalently bind each receptor to the dextran matrix on the sensor chip. The optimal pH for this coupling was analyzed using preconcentration experiments ranging from pH 4-7 and was determined to be pH 4.0 based on the slope of the binding. The actual coupling was performed using the manual injection mode. A target level of 200 relative units (RU) was set as the goal for both flow cells. A response of 1000 RU correlates to a change in surface concentration of about 1 ng/mm² for proteins. The molecular weight of the TR7 and TR2 fusion proteins was nearly identical. The concentration of both receptors for immobilization was 5 μg/ml in 10 mM acetate, pH 4.0 (BIAcore, Cat # BR-1003-49). The entire experiment was performed at a flow rate of 5 μL/min. Contact time for the N-ethyl-N′-(3-dimethylaminoprolpyl)carbodiimide hydrochloride/Ethanolamine hydrochloride-NaOH, pH 8.5 (EDC/NHS) injection was 3 minutes. The ethanolamine was injected for 3 minutes.
(§5) Analysis of CM005G08 kinetics was performed using the BIAcore 2000 instrument with the 2000 control software, version 3.1.1. […] The off rate of CM005G08 was determined by washing the complex in the presence of HBS-EP buffer for 10 minutes. […]

The target of experiment [3] is T1, TR7-Fc fusion protein. The experiment in a line: competition ELISA, inhibition of biotinylated TRAIL binding to captured TR7-Fc; second of two lots. The method, then:
as §1, §2, §3

For experiment [4], the target named is T1, TR7-Fc fusion protein. The experiment in a line: competition ELISA, inhibition of biotinylated TRAIL binding to captured TR7-Fc; first of two lots. The method, then:
as §1, §2, §3

For experiment [5], the target named is T1, TR7-Fc fusion protein. Kind of experiment: SPR (BIAcore 2000), TR7-Fc amine-coupled on CM5 chip, 1:1 Langmuir model, mean of three experiments; second lot. The method, then: as §4, §5
On the technique in general: Surface plasmon resonance follows binding to a sensor surface in real time, without labels.

B1: TRAIL (ligand)
chain: TSEETISTVQEKQQNISPLVRERGPQRVAAHITGTRGRSNTLSSPNSKNEKALGRKINSWESSRSGHSFLSNLHLRNGELVIHEKGFYYIYSQTYFRFQEEIKENTKNDKQMVQYIYKYTSYPDPILLMKSARNSCWSKDAEYGLYSIYQGGIFELKENDRIFVSVTNEHLIDMDHEASFFGAFLVG
notes: also called soluble TRAIL ligand; AIM-I
In turn, B1 came in with an IC50 in the experiment with TR7-Fc fusion protein [1] of 1.77 nM. That is a single-digit nanomolar value.

B2: whole IgG1 antibody comprising the VH and VL domains of the CM005G08 scFv (antibody, V domains shown)
VH: EVQLVQSGGGVERPGGSLRLSCAASGFTFDDYGMSWVRQAPGKGLEWVSGINWNGGSTGYADSVKGRVTISRDNAKNSLYLQMNSLRAEDTAVYYCAKILGAGRGWYFDLWGKGTTVTVSS
VL: SSELTQDPAVSVALGQTVRITCQGDSLRSYYASWYQQKPGQAPVLVIYGKNNRPSGIPDRFSGSSSGNTASLTITGAQAEDEADYYCNSRDSSGNHVVFGGGTKLTVLG
notes: 3.75 ug/mL = 25 nM implies a whole IgG; also called CM005G08 (IgG1 format); anti-TR7 antibody
In the case of B2, the Kd stood at 0.25 nM with TR7-Fc fusion protein [2] and 0.33 nM with TR7-Fc fusion protein [5]. Also, the values for the koff with TR7-Fc fusion protein [2] and with TR7-Fc fusion protein [5] were 0.00266 s⁻¹ and 0.00268 s⁻¹, respectively. The IC50 with TR7-Fc fusion protein [3] came out at 6.89 nM; with TR7-Fc fusion protein [4], 5.3 nM.

For the origin of these results see patent US20030180296A1 (Human Genome Sciences, published 2003).
